Target: T1, TG2 (Homo sapiens, UniProt P21980)
T1 construct: Immunoprecipitations of endogenous proteins were performed on 500 μg of lysates from Caco-2 cells; host or cells: Caco-2
T1 sequence (P21980 1-687): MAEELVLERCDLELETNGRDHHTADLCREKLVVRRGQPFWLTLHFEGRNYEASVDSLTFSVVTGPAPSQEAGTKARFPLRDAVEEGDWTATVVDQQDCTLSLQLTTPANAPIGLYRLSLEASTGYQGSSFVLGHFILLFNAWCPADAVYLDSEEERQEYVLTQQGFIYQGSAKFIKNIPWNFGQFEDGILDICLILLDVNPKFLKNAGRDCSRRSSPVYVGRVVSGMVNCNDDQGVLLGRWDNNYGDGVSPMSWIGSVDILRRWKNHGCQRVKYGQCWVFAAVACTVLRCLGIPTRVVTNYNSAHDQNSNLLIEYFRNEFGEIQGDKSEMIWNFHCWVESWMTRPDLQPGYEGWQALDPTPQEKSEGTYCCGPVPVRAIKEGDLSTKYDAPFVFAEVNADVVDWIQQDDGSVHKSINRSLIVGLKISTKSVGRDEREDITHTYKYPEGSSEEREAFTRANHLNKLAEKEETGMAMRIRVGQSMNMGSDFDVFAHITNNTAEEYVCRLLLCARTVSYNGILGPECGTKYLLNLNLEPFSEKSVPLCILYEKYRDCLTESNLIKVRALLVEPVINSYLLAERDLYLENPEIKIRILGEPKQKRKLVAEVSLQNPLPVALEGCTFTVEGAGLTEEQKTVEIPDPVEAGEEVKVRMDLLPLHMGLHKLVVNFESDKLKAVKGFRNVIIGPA
Assay: TG2 interaction and TG2 activity in Caco-2 cells
Format: cell-based
Method: Human colon adenocarcinoma-derived Caco-2 and T84 cells were obtained from the ATCC. Cells were maintained in T25 flask in Modified Eagle Medium (MEM) for Caco-2, or Ham's F12+DMEM (1:1) for T84, supplemented with 10% fetal bovine serum (FBS), 2 mM Glutamine+1% Non Essential Amino Acids (NEAA) and the antibiotics penicillin\streptomycin (100 units/ml) (all reagents from Lonza) (Luciani, A., et al. 2010. Cells were grown in Transwells (Corning, 3470 or 3460) under the normal condition (Luciani, A., et al. 2012). Briefly, 8×10^4 or 5×10^5 cells were seeded in 6.5-mm diameter or 12-mm diameter, respectively, and grown until the RT reached 800 to 1,200 Ω·cm2. Transwells with a pore size of 0.4 μm were used. Medium in both the apical and basolateral chambers was changed every other day. Cells were treated with 20 μg/ml of either α-gliadin peptide P31-43 or […] or scrambled PGAV or modified P31-43 either biotin-tagged or not, for different time point (from 1 h short challenge up to 24 h). Cells were also treated with 50 or 100 μg/ml of P57-68 or PGAV peptides for 3 h. Caco-2 or T84 cells were also treated with: CFTR potentiators VX-770 (10 μM) or VX-532 (20 μM) (Selleck chemicals) or Genistein (10 μM) (Sigma-Aldrich) or in presence or absence of CFTR inhibitor172 (CFTRinh172, 20 μM) or 3-methyl-adenine (3-MA, 20 μM) (Calbiochem), Z-DON (20 nM, Zedira) or BAPTA-AM (10 μM, Calbiochem).
The whole lysate or membrane fraction proteins of cell lines and mice intestine homogenates were obtained from treated and untreated cells or mice as described. The equal amount of protein were resolved by SDS-PAGE gel and blotted with antibodies against: SQSTM1, (Sigma Aldrich, 108k4767) 1:1000, PPARγ (Santa Cruz Biotechnology, sc7273) 1:500, BECN1 (Abcam, ab58878) 1:1000, CFTR clone M3A7 (Abcam, ab4067) 1:500, phospho-ERK1/2 (php42/44, Cell Signaling Technology, #91101) 1:1000, UVRAG (Santa Cruz Biotechnology sc8215) 1:1000, NHERF-1 (BD, 611161) 1:1000, EZRIN (BD, 610603) 1:1000, hVps34 (SigmaV9764) 1:300, biotin (Abcam, ab1227) 1:2000, PKAr2a (BD, 610625) 1:500, Ubiquitin (Cell Signaling clone P4D1, #3936) 1:1000, CHIP (Calbiochem PC711) 1:500, Caspase-1 p10 (M-20) (Santa Cruz Biotechnology, sc-514) 1:200, NLRP3 (Abcam, ab4207), 1:500, IDO1 (monoclonal; cv152) 1:1000^[80], used as primary antibodies. Normalization was performed by probing the membrane with anti-β-actin (Cell Signaling, #4970) 1:1000, anti-Gapdh (Sigma-Aldrich, G8795) 1:1000 and anti-flottilin (Abcam ab15148) 1:1000 antibodies. Immunoprecipitations of endogenous proteins were performed on 500 μg of lysates from Caco-2 cells. The proteins were incubated for 12-18 h at 4° C. with 10 ug\ml of specific antibody followed by the addition of Protein A/G-agarose beads for 4 h at 4° C. The beads were then washed three times with lysis buffer and Laemmli's sample buffer was added to the samples. The membranes were then blotted with: CFTR clone CF3 (Abcam, ab2784) 1:1000, TG2 (clone CUB7402; NeoMarkers) 1:1000, CHIP (Calbiochem PC711) 1:500, Ubiquitin (Cell Signaling clone P4D1 3936), isopeptide (Abcam 422) 1:1000, PKAR2 (BD 610625) 1:500.
For detection of complex with biotnylated-P31-43 or immune-complex of glutamime-lysine bonds, the beads were resolved in non-reducing and non-denaturating conditions, and then blotted with Streptavidin-HRP (Sigma 52438) 1:3000 or anti-biotin (Abcam ab2103) 1:2500 and anti-isopeptide (Abcam 422) 1:1000.
TG2 enzymatic activity in Caco-2, treated as described above, was detected: 1) by incubating unfixed sections with biotin-mono-dansylcadaverine (MDC, 10 mM, Molecular Probe) for 1 h at room temperature and then stained with Alexa-fluor488-Streptavidin, as previously described (JI2008/2009) or 2) or by incorporation of 5(biotinamido)pentylamines (BAP) into protein substrates. For BAP-incorporation, 2 mM BAP (Soltec Ventures, B110) were directly added into the medium together with the indicated treatments. […]

α-gliadin peptide LGQQQPFPPQQPY (SEQ ID 1), induces an enterocyte stress response (P31-43 sequence of alpha-gliadin)
TG2-mediated glutamine-lysine bonds in CFTR immunoprecipitates (Caco-2 cells): induced the formation of TG2-mediated glutamime-lysine bonds
covalent interaction with TG2 (Caco-2 cells, shortly upon challenge): covalently interacted with TG2
interaction between TG2 and CFTR by co-immunoprecipitation (cells incubated with peptide): stimulated the interaction between TG2 and CFTR

CC(C)(C)c1cc(C(C)(C)C)c(NC(=O)c2c[nH]c3ccccc3c2=O)cc1O [VX-770, N-(2,4-di-tert-butyl-5-hydroxyphenyl)-4-oxo-1,4-dihydroquinoline-3-carboxamide]
effect on P31-43-induced interaction of TG2 and CFTR (Caco-2 cells): abolished the P31-43-induced interaction of TG2 and CFTR
effect on P31-43-induced TG2 activation (Caco-2 cells preincubated with VX-770): negated the capability of P31-43 5 to induce TG2 activation
impact on TG2-mediated transamidation reactions (Caco-2 cells pulsed with Ca2+): has no impact on TG2mediated transamidation reactions
